This data set deals with the molecule itself. Put plainly: SEC. For orientation: Size exclusion chromatography separates by hydrodynamic size, large species first.

B1: PMK3 (p38 MAPK of C. elegans), full length (enzyme, UniProt O44514 1-474, looked up)
chain: MASVPSSSSLPVSHVRRHEDVSTPSAPPTKRSNNQSQPPESYEPNTWLQQQREQEQQKKLAAENIKKQSIEATGNNEMVGEEEEDILSKPCGPHKRRFQFVMIRNITFAIPEGYDVEPNSIEYLGGGSFGNVIKTSAVCRDGLRRYVAIKKMREPFFDPHHARRIFRETKLLQLMRHDNIICALDIYTPDEENDFRDVYVVTEFAGRSLYQILKQQRDYGRRVLTDEHIKFIIYQIIRALKYIHSANIIHRDLKPGNLALTDDSDLMILDFGLARSLEKKDTSLTQYVQTRWYRSPEVIYWKIDSYTNLADMWSLGCIAAELLTGEPLFPGDEPNAQYQRITQLCGSPDEELLTKIENDNSSAIKAVIQSYTTHKRRNFRDVFSAHNPSEDFIDLLEKLLVLDPEKRITVEEAIQHPYLAEFSLPEDEPRADHIFDLDDSQARTRFEWRDAVWKEIMNYKRLSSSPLIPGEADR
Consider B1, for which the binding result was “binds”.
